Results published in US20260151494A1 (ARO BIOTHERAPEUTICS, published 2026).
Where a chain is given by its changes, count along the chain named.

B1: CD71-binding FN3 domain of SEQ ID NO: 222 (designed binder)
chain: MSLPAPKNLVVSRVTEDSARLSWTAPDAAFDSFFIGYLEPQPPGEAITLYVPGSERSYDLTGLKPGTEYNVTIQGVKGGFPSGPLIASFTT
B2: CD71-binding FN3 domain of SEQ ID NO: 221 (designed binder)
chain: B1 chain with Q41R, T48H, V71I, G83I
B3: CD71-binding FN3 domain of SEQ ID NO: 231 (designed binder)
chain: B1 chain with T48H, Y50F, G83E, S88N, F89S
B4: CD71-binding FN3 domain of SEQ ID NO: 225 (designed binder)
chain: MSLPAPKNLVVSRVTEDSARLSWTAPDAAFDSFEIGYFENLYLGEAIVLTVPGSERSYDLTGLKPGTEYWVQIGGVKGGNWSAPLSAIFTT
B5: CD71-binding FN3 domain of SEQ ID NO: 224 (designed binder)
chain: B4 chain with F38W, L41A, L43K, W70V, Q72F, N80G, A83G
B6: CD71-binding FN3 domain of SEQ ID NO: 230 (designed binder)
chain: B4 chain with V10I, F33L
B7: CD71-binding FN3 domain of SEQ ID NO: 223 (designed binder)
chain: B4 chain with G36A, N40R, L41T, Y42W, L43F, Q72A, N80L, A83L, A87V
B8: CD71-binding FN3 domain of SEQ ID NO: 233 (designed binder)
chain: B4 chain with E34F, F38L, N40P, L41Q, Y42P, L43P, V48H, T50S
B9: CD71-binding FN3 domain of SEQ ID NO: 232 (designed binder)
chain: MSLPAPKNLVVSRVTEDSARLSWTAPDAAFDSFEISYWEHTFNGEAIILFVPGSERSYDLTGLKPGTEYVVFIGGVKGGVWSVPLSAIFTT
B10: CD71-binding FN3 domain of SEQ ID NO: 220 (designed binder)
chain: B4 chain with G36A, F38W, N40Q, L41S, L43T
B11: CD71-binding FN3 domain of SEQ ID NO: 226 (designed binder)
chain: B4 chain with V11I, Q72A, N80L, A83L
B12: CD71-binding FN3 domain of SEQ ID NO: 228 (designed binder)
chain: B4 chain with F38W, L41A, L43K, W70V, Q72F, N80V, A83K, A87V
B13: CD71-binding FN3 domain of SEQ ID NO: 219 (designed binder)
chain: MSLPAPKNLVVSRVTEDSARLSWTAPDAAFDSFAIMYGERGNPGEAIVLTVPGSERSYDLTGLKPGTEYAVWIYGVKGGNYSYPLSAIFTT
notes: the tag is not included in the chain
B14: CD71-binding FN3 domain of SEQ ID NO: 227 (designed binder)
chain: MSLPAPKNLVVSRVTEDSARLSWTAPDAAFDSFEIAYAELSTGEAIVLTVPGSERSYDLTGLKPGTEYYVHIGGVKGGSWSIPLSAIFTT
B15: CD71-binding FN3 domain of SEQ ID NO: 229 (designed binder)
chain: MSLPAPKNLVVSRVTEDSARLSWTAPDAAFDSFSIMYAEQKVNGEAIVLTVPGSERSYDLTGLKPGTEYLVLIWGVKGGGRSLPLSAIFTT
B16: CD71-binding FN3 domain of SEQ ID NO: 234 (designed binder)
chain: B1 chain with T48A, G83E, I86V, S88H
B17: CD71-binding FN3 domain of SEQ ID NO: 335 (designed binder)
chain: B1 chain with T48D, G83L, I86V, S88T
B18: CD71-binding FN3 domain of SEQ ID NO: 333 (designed binder)
chain: B1 chain with K7E, T48A, G83L, I86V, S88T
B19: CD71-binding FN3 domain of SEQ ID NO: 341 (designed binder)
chain: B1 chain with T48E, G83L, I86V, S88I
B20: CD71-binding FN3 domain of SEQ ID NO: 972 (designed binder)
chain: B1 chain with T48A, V76A, G83E, I86V, A87V, S88H
B21: CD71-binding FN3 domain of SEQ ID NO: 343 (designed binder)
chain: B1 chain with T48A, Y50W, G83E, I86V, S88T
B22: CD71-binding FN3 domain of SEQ ID NO: 281 (designed binder)
chain: B1 chain with T48A, G83E, S88N
B23: CD71-binding FN3 domain of SEQ ID NO: 264 (designed binder)
chain: B1 chain with T48A, G83E, I86V, A87V, S88H
B24: CD71-binding FN3 domain of SEQ ID NO: 973 (designed binder)
chain: B1 chain with T48H, V71G, G78V, G83E, S88N
B25: CD71-binding FN3 domain of SEQ ID NO: 974 (designed binder)
chain: B1 chain with T48A, G83L, I86V, S88T
B26: CD71-binding FN3 domain of SEQ ID NO: 270 (designed binder)
chain: B1 chain with T48H, G83E, S88N, F89S
B27: CD71-binding FN3 domain of SEQ ID NO: 290 (designed binder)
chain: B1 chain with T48H, G83E, I86V, S88T
B28: CD71-binding FN3 domain of SEQ ID NO: 331 (designed binder)
chain: B1 chain with T48H, G78V, G83E, S88N
B29: CD71-binding FN3 domain of SEQ ID NO: 540 (designed binder)
chain: MLPAPKNLVVSRVTEDSARLSWTAPDAAFDSFYIAYAEPRPDGEAIILVVPGSERSYDLTGLKPGTEYSVLIHGVKGGLLSSPLDAGFTT
notes: Tencon-based FN3 domain
B30: CD71-binding FN3 domain of SEQ ID NO: 472 (designed binder)
chain: MLPAPKNLVVSRVTEDSARLSWTAPDAAFDSFFIGYLEPQPPGEAIELYVPGSERSYDLTGLKPGTEYNVTIQGVKGGFPSLPLVATFTT
notes: Tencon-based FN3 domain
B31: CD71-binding FN3 domain of SEQ ID NO: 373 (designed binder)
chain: B30 chain with E47S, Y49F, L82D, T87S
notes: Tencon-based FN3 domain
B32: CD71-binding FN3 domain of SEQ ID NO: 447 (designed binder)
chain: B30 chain with E47Y, L82Y, V85T, T87Q
notes: Tencon-based FN3 domain
B33: CD71-binding FN3 domain of SEQ ID NO: 400 (designed binder)
chain: B30 chain with E47H, Y49F, L82G, V85H
notes: Tencon-based FN3 domain
B34: CD71-binding FN3 domain of SEQ ID NO: 341 conjugated to KRAS2 siRNA (designed binder)
chain: B1 chain with T48E, G83L, I86V, S88I
modifications: conjugated to KRAS2 tool siRNA; site and linker not stated
B35: CD71-binding FN3 domain of SEQ ID NO: 343 conjugated to KRAS2 siRNA (designed binder)
chain: B1 chain with T48A, Y50W, G83E, I86V, S88T
modifications: conjugated to KRAS2 tool siRNA; site and linker not stated

These binders were tested against T1, human CD71 extracellular domain (human, UniProt P02786 89-760) (assay: primary ELISA, ratio of signal to HSA control).
T1 construct: also called hCD71; human CD71-ECD
T1 sequence (P02786 89-760): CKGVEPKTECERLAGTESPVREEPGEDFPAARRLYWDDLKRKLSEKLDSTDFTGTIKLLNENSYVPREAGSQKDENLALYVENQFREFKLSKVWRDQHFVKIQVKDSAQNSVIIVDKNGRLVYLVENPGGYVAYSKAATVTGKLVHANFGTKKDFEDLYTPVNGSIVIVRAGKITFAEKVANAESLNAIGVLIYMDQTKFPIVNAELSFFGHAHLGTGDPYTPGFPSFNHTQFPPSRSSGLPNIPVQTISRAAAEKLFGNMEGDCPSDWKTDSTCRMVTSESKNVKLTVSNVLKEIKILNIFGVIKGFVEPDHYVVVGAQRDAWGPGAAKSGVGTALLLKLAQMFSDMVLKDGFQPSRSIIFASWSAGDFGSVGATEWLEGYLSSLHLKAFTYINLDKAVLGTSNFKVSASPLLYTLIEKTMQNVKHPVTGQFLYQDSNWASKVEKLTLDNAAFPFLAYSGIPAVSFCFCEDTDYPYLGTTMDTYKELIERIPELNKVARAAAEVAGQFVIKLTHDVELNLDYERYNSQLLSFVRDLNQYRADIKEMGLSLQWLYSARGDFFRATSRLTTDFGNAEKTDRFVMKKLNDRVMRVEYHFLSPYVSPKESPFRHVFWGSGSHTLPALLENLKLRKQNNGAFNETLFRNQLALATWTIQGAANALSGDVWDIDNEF
For B1, the “hCD71:HSA” value was 215.
In the case of B2, the “hCD71:HSA” value is reported as 176.
In the case of B3, the “hCD71:HSA” value is reported as 56.
For B4, the “hCD71:HSA” value was 191.
With B5 the “hCD71:HSA” value was 74.
With B6 the “hCD71:HSA” value was 151.
With B7 the “hCD71:HSA” value was 26.
B8 was tested, and the “hCD71:HSA” value was 202.
For B9, the “hCD71:HSA” value was 195.
In the case of B10, the “hCD71:HSA” value is reported as 388.
For B11, the “hCD71:HSA” value was 20.
B12 was tested, and the “hCD71:HSA” value was 133.
In the case of B13, the “hCD71:HSA” value is reported as 66.
B14 was tested, and the “hCD71:HSA” value was 30.
For B15, the “hCD71:HSA” value was 90.

Each binder was assayed against T2, apical domain of cynomolgus CD71 (cynomolgus, UniProt A0A2K5X958 189-383) (assay: primary ELISA, ratio of signal to HSA control).
T2 construct: domain: apical domain; also called Cyno apical domain
T2 sequence (A0A2K5X958 entry or part of it): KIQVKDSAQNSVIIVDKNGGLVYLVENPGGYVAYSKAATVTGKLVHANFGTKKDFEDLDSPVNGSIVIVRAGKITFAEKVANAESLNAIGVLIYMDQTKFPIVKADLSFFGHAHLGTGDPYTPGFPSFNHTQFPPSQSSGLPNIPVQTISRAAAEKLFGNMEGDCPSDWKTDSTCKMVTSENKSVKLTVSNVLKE
B1 was tested, and the “Cyno apical domain:HSA” value was 223.
B2 was tested, and the “Cyno apical domain:HSA” value was 186.
B3 was tested, and the “Cyno apical domain:HSA” value was 63.
In the case of B4, the “Cyno apical domain:HSA” value is reported as 331.
For B5, the “Cyno apical domain:HSA” value was 115.
With B6 the “Cyno apical domain:HSA” value was 282.
For B7, the “Cyno apical domain:HSA” value was 47.
With B8 the “Cyno apical domain:HSA” value was 359.
With B9 the “Cyno apical domain:HSA” value was 295.
B10 was tested, and the “Cyno apical domain:HSA” value was 751.
In the case of B11, the “Cyno apical domain:HSA” value is reported as 28.
For B12, the “Cyno apical domain:HSA” value was 242.
With B13 the “Cyno apical domain:HSA” value was 101.
For B14, the “Cyno apical domain:HSA” value was 49.
With B15 the “Cyno apical domain:HSA” value was 119.

Each binder was assayed against T3, human CD71 on cells (SKBR3; SW620-rLuc-KRAS) (human, UniProt P02786 1-760) (assay: cell-based or functional assay).
T3 sequence (P02786 whole entry): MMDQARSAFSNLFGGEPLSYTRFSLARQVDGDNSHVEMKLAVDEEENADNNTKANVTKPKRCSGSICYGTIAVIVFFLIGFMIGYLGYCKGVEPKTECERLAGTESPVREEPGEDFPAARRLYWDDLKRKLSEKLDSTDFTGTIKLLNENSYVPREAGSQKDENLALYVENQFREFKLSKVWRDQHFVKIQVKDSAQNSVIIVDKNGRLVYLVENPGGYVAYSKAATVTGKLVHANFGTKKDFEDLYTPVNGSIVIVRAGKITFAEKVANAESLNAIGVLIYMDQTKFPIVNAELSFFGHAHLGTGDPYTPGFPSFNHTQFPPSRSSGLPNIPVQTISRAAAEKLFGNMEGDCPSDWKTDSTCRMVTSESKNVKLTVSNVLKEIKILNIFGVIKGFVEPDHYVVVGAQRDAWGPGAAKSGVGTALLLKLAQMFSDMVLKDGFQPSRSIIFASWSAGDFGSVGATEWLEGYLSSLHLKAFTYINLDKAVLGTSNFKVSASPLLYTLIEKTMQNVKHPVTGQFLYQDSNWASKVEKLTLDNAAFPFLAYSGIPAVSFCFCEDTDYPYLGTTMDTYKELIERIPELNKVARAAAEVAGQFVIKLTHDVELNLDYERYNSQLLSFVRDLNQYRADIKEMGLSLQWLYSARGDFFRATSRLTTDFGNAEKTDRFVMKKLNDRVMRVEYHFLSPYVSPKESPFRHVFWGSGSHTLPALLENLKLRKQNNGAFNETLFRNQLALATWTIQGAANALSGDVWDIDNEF
For B16, the “CTG EC50 (CellTiter-Glo luminescent assay, SKBR3 cells, 72 h)” value (shortened to “CTG EC50”) was 0.07 nM.
For B17, the “CTG EC50” value was 0.04 nM.
With B18 the “CTG EC50” value was 0.57 nM.
With B19 the “CTG EC50” value was 0.11 nM.
In the case of B20, the “CTG EC50” value is reported as 0.04 nM.
In the case of B21, the “CTG EC50” value is reported as 0.21 nM.
B22 was tested, and the “CTG EC50” value was 0.06 nM.
B23 was tested, and the “CTG EC50” value was 0.16 nM.
With B24 the “CTG EC50” value was 0.07 nM.
In the case of B25, the “CTG EC50” value is reported as 0.15 nM.
With B26 the “CTG EC50” value was 0.57 nM.
With B27 the “CTG EC50” value was 0.01 nM.
For B28, the “CTG EC50” value was 0.05 nM.

The binders below were run against T1, human CD71 extracellular domain (assay: primary ELISA, luminescence).
For B1, the RLU was 5.78e+06 RLU.
For B2, the RLU was 5.75e+06 RLU.
B3 was tested, and the RLU was 4.93e+06 RLU.
B4 gave an RLU of 2.43e+06 RLU.
Work on B5 yielded an RLU of 3.1e+06 RLU.
For B6, the RLU was 2.54e+06 RLU.
Work on B7 yielded an RLU of 2.25e+06 RLU.
Work on B8 yielded an RLU of 2.69e+06 RLU.
B9 was tested, and the RLU was 3.58e+06 RLU.
B10 showed an RLU of 2.43e+06 RLU.
In the case of B11, the RLU is reported as 3.1e+06 RLU.
With B12 the RLU was 2.66e+06 RLU.
With B13 the RLU was 3.01e+06 RLU.
B14 gave an RLU of 2.62e+06 RLU.
B15 showed an RLU of 3.42e+06 RLU.

These binders were tested against T2, apical domain of cynomolgus CD71 (assay: primary ELISA, luminescence).
B1 showed an RLU of 6.01e+06 RLU.
Binder B2 has an RLU of 6.08e+06 RLU.
Work on B3 yielded an RLU of 5.52e+06 RLU.
B4 gave an RLU of 4.22e+06 RLU.
For B5, the RLU was 4.79e+06 RLU.
B6 was tested, and the RLU was 4.73e+06 RLU.
In the case of B7, the RLU is reported as 4.11e+06 RLU.
Binder B8 has an RLU of 4.78e+06 RLU.
B9 gave an RLU of 5.41e+06 RLU.
B10 was tested, and the RLU was 4.69e+06 RLU.
For B11, the RLU was 4.33e+06 RLU.
B12 was tested, and the RLU was 4.86e+06 RLU.
Binder B13 has an RLU of 4.58e+06 RLU.
With B14 the RLU was 4.23e+06 RLU.
B15 gave an RLU of 4.52e+06 RLU.

Target: T3, human CD71 on cells (SKBR3; …)
Experiment: cell-based or functional assay
Remark: another data set of the same source
B29 was tested, and the “CTG EC50” value was 14.4 nM.
For B30, the “CTG EC50” value was 0.3 nM.
With B31 the “CTG EC50” value was 0.4 nM.
B32 was tested, and the “CTG EC50” value was 71.5 nM.
With B33 the “CTG EC50” value was 2.9 nM.

Target: T3, human CD71 on cells (SKBR3; …)
Experiment: cell-based or functional assay
Remark: another data set of the same source
In the case of B34, the “LSA EC50 (luciferase reporter assay, SW620-rLuc-KRAS cells, 72 h)” value is reported as 0.67 nM.
In the case of B35, the “LSA EC50 (luciferase reporter assay, SW620-rLuc-KRAS cells, 72 h)” value is reported as 0.64 nM.

Each binder was assayed against T4, cynomolgus monkey CD71 extracellular domain (CD71-ECD) (cynomolgus monkey, UniProt H9EXL1 89-760 (rhesus entry)) (assay: capture ELISA, 20 nM antigen on Neutravidin plate, FN3 titrated 250 to 0.3 nM).
T4 construct: extracellular domain; It was captured on a Neutravidin plate; also called cynomolgus CD71-ECD
T4 sequence (chain, as listed by the source): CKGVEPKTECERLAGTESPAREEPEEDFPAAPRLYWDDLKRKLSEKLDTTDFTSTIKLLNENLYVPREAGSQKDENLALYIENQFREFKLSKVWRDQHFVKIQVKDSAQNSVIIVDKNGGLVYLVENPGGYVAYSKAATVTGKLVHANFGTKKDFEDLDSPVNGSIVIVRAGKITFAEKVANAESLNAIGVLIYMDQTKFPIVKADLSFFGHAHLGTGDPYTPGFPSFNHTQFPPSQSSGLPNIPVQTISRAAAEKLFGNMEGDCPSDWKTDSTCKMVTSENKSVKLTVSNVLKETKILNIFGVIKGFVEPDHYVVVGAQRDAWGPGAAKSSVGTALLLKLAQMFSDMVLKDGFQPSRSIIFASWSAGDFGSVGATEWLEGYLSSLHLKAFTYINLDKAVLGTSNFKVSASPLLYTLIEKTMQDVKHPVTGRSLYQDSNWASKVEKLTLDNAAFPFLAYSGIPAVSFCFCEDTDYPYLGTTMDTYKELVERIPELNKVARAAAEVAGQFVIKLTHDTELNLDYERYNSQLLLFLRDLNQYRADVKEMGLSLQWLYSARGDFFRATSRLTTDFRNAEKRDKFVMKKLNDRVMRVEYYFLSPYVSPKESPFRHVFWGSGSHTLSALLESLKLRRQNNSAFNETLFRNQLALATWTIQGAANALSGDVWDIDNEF
Description: (§1) Select CD71-binding FN3 domains identified in Example 4 above were chosen to determine their binding to both human and cynomolgus monkey CD71 extracellular domain (CD71-ECD). Capture ELISA using CD71 binding to FN3 domains was performed, with the FN3 domains being titrated from 250 nM to 0.3 nM. 20 nM of antigen was incubated on a Neutravidin® plate for 1 hour at room temperature. The FN3 domains were incubated for 16 hours at room temperature.
B30 showed an EC50 of 0.7 nM.
Binder B31 has an EC50 of 1.6 nM.
B32 was tested, and the EC50 was 5 nM.
Binder B33 has an EC50 of 4.3 nM.

Each binder was assayed against T5, human CD71 extracellular domain (CD71-ECD) (human, UniProt P02786 89-760) in the same assay as above.
T5 construct: It was captured on a Neutravidin plate; also called hCD71; transferrin receptor 1 ECD
T5 sequence (P02786 89-760): as the sequence (P02786 89-760) above
Description: as §1
B29 gave an EC50 of 10 nM.
B30 was tested, and the EC50 was 0.4 nM.
Work on B31 yielded an EC50 of 0.91 nM.
B32 showed an EC50 of 3.2 nM.
B33 gave an EC50 of 2.8 nM.
